Laboratory results reported in the supplement of paper PMC9170038.

Test system: MS2 coat protein
Test: apparent KD of MS2 coat protein; designed switch direction (-1 OFF switch, 1 ON switch): 1; higher = weaker reporter binding
Summary of the method: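 For each design, the apparent KD is the median over clusters of curves fitted to normalised cluster fluorescence. Clusters held RNA switches with common flanks, transcribed on Illumina chips by stalled E. coli RNA polymerase. These were titrated with SNAP-549-labelled MS2 coat protein, doubling from 0.7 or 1.5 nM to 3 µM, without input, with 200 uM small-molecule ligand, or with an oligonucleotide input.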

[1] = input ligand: microRNA oligo, concentration not stated
[2] = Eterna round: R95, input ligand: FMN 200 uM
[3] = Eterna round: R95, input ligand: microRNA oligo, concentration not stated
[4] = Eterna round: R95, input ligand: none

| Sequence | apparent KD of MS2 coat protein (input ligand: FMN 200 uM) [µM] | apparent KD of MS2 coat protein [1] [µM] | apparent KD of MS2 coat protein (input ligand: none) [µM] | apparent KD of MS2 coat protein [2] [µM] | apparent KD of MS2 coat protein [3] [µM] | apparent KD of MS2 coat protein [4] [µM] |
| --- | --- | --- | --- | --- | --- | --- |
| AAUCGUUUGAUAGGAUAUCGUUAUACAUGAGGAUCACCCAUGUUUACCACGCUGGUUUUUCGUACCGAGAAGGAUUCUGAUGAU [JL JR sub007 mod 6] (Eterna round: R96, puzzle: Same State NG 2) | 0.0305 | 0.0202 | 0.0275 | – | – | – |
| AAUUAUUAACAUGAGGAUCACCCAUGUAUUAUUAUUAUUAUUAACAAGCUUUUUCAUGUUAUUAGCUCGUCUUAUAA [Bojan's Design 2] (puzzle: Sensor for hsa-mir-208a version 2) | – | – | – | 0.0165 | 0.0317 | 0.0154 |
| AAUUGUUUCUGAGGAUAUCAGUAGUAUGCUUUUUGAGAAGGCAGUACAUGAGGAUCACCCAUGUUGUGGUUUGAUAGAAUGAUA [JR_SSNG1_Sub004] (Eterna round: R96, puzzle: Same State NG 1) | – | 0.13 | – | – | – | – |
| ACAAGACAGGGAGGAUAUAGCUGUUCAUCAAAGUUAGAAGGCUCGUACACAUGAGGAUCACCCAUGUUGUCGGCAGUCGACUGA [Eternabot solution 42] (Eterna round: R96, puzzle: Same State NG 1) | 0.00744 | 0.00967 | 0.0122 | – | – | – |
| ACAAGCUUUUUGCUCGUCUUCAUGUAAUAACAUGAGGAUCACCCAUGUAACGUUAAAAGUCUCUCGAUAAUAGCUCA [Meechl hsa-mir-208a 1] (puzzle: Sensor for hsa-mir-208a) | – | – | – | 0.132 | 0.0336 | 0.348 |
| ACAUGAAAUUGAGGAUAUUUUGUACCUACAUGUGACAUGAGGAUCACCCAUGUGGUAAGUAUAAGAGAGAAGGCAAAGAUAUGU [Equivalence 6 - Jieux - Same State NG 2] (Eterna round: R96, puzzle: Same State NG 2) | 0.03 | 0.0292 | 0.0451 | – | – | – |
| ACAUGAGACCAAGGAUAUUUUGUACCUACAUGUGACAUGAGGAUCACCCAUGUGGUAAGUAUGAGAGAGAAGGUGGAGAUAUGU [Equivalence 23 - Jieux - Same State NG 2] (Eterna round: R96, puzzle: Same State NG 2) | 0.0344 | 0.0215 | 0.0365 | – | – | – |
| ACAUGAGACCGAGGAUAUUUUGUACCUACAUGUGACAUGAGGAUCACCCAUGUGGUAAGUAUGAGAAAGAAGGCGGAGAUAUGU [Equivalence 20 - Jieux - Same State NG 2] (Eterna round: R96, puzzle: Same State NG 2) | 0.0224 | 0.0248 | 0.0326 | – | – | – |
| ACAUGAGACCUAGGAUAUCUUGUACCUACAUGUGACAUGAGGAUCACCCAUGUGGUAAGUAUGAGAGAGAAGGAGGAGAUAUGU [Equivalance 54 - Jieux - Same State NG 2] (Eterna round: R96, puzzle: Same State NG 2) | 0.0154 | 0.0123 | 0.0176 | – | – | – |
| ACAUGAGACUCAGGAUAUAUUGUACCUACAUGUGACAUGAGGAUCACCCAUGUGGUAAGUAUGACAUAGAAGGGAGAGAUAUGU [Equivalance 86 - Jieux - Same State NG 2] (Eterna round: R96, puzzle: Same State NG 2) | 0.0373 | 0.0405 | 0.0599 | – | – | – |
| ACAUGAGAGAUAGGAUAUUGUGUACCUACAUGUGACAUGAGGAUCACCCAUGUGGUAAGUAUGAGCAAGAAGGAUCAGAUAUGU [Equivalance 51 - Jieux - Same State NG 2] (Eterna round: R96, puzzle: Same State NG 2) | 0.0232 | 0.0359 | 0.0695 | – | – | – |
| ACAUGAGAGCUAGGAUAUUUUGUACCUACAUGUGACAUGAGGAUCACCCAUGUGGUAAGUAUGAGAAAGAAGGAGCAGAUAUGU [Equivalance 53 - Jieux - Same State NG 2] (Eterna round: R96, puzzle: Same State NG 2) | 0.0149 | 0.0307 | 0.038 | – | – | – |
| ACAUGAGAGUUAGGAUAUCUUGUACCUACAUGUGACAUGAGGAUCACCCAUGUGGUAAGUAUGACAGAGAAGGAACAGAUAUGU [Equivalance 69 - Jieux - Same State NG 2] (Eterna round: R96, puzzle: Same State NG 2) | 0.0362 | 0.0502 | 0.0911 | – | – | – |
| ACAUGAGAGUUAGGAUAUCUUGUACCUACAUGUGACAUGAGGAUCACCCAUGUGGUAAGUAUGAGGGAGAAGGGACAGAUAUGU [Equivalence 44 - Jieux - Same State NG 2] (Eterna round: R96, puzzle: Same State NG 2) | 0.0674 | 0.0544 | 0.0847 | – | – | – |
| ACAUGAGAUAGAGGAUAUGUUGUACCUACAUGUGACAUGAGGAUCACCCAUGUGGUAAGUAUGAUACAGAAGGCUAAGAUAUGU [Equivalance 60 - Jieux - Same State NG 2] (Eterna round: R96, puzzle: Same State NG 2) | 0.0165 | 0.0191 | 0.0301 | – | – | – |
| ACAUGAGAUUUAGGAUAUAUAGUACCUACAUGUGACAUGAGGAUCACCCAUGUGGUAAGUAUGACAUAGAAGGAAAAGAUAUGU [Equivalance 98 - Jieux - Same State NG 2] (Eterna round: R96, puzzle: Same State NG 2) | – | 0.0479 | – | – | – | – |
| ACAUGAGGAUCACCCAUGUAUGCUCAGGAAACUGUGCAGCAUGAGGAUAUGGAUCCUAAUUGGAUCCAGAAGGCGUGAAUUAUU [Fiskers NG3ss - 25] (Eterna round: R96, puzzle: Same State NG 3) | 0.507 | 0.692 | 2.52 | – | – | – |
| ACAUGAGGAUCACCCAUGUCGCUGGUAUCGGAUACGUAUUACGAGGAUAUGCCGAGGAGUUCCGAGUAGAAGGUGUAAUACAUG [Eternabot solution 40] (Eterna round: R96, puzzle: Same State NG 3) | 0.178 | 0.0903 | 0.102 | – | – | – |
| ACAUUUAGCUCUUGCACAUGAGGAUCACCCAUGUUCGGUUCACAGGAUAUCUAGUCAAACGGGCUGGAGAAGGGUGGCAGGAGC [Islainon] (Eterna round: R96, puzzle: Same State NG 3) | 0.0679 | 0.2 | 0.289 | – | – | – |
| ACCCAAAGUAUAUGGGAGCAAGCUUUUUAACAUGAGGAUCACCCAUGUACUCGUCUUAUAAGCAGUCGAAAGACUGC [Sensor 100 - 4] (Eterna round: R96, puzzle: Sensor for hsa-mir-208a) | 0.873 | 0.0138 | 0.941 | – | – | – |
| ACCCAAAGUAUAUGGGAGCAAGCUUUUUAACAUGAGGAUCACCCAUGUACUCGUCUUAUAAGCAGUCGAAAGACUGC [Sensor 100 - 4] (puzzle: Sensor for hsa-mir-208a) | – | – | – | 0.612 | 0.0124 | 0.814 |
| ACCGCGUUUCGCGCCUACAUGAGGAUCACCCAUGUUUGUAGGCAGGAUAUCGUCCGCUCUGCGGGCGAGAAGGGCUGUUGUGGU [salish99_SSNG3_R04_028] (Eterna round: R96, puzzle: Same State NG 3) | 0.0493 | 0.0429 | 0.0608 | – | – | – |
| ACGCAGCUGGGUAAGGAUAUCGGUGGUAAAACAUGAGGAUCACCCAUGUCCGAAGCUCGGACCUCCGAGAAGGUGCCCGGCUGCG [Soinraesar Omei Mod 7] (puzzle: Same State 2) | – | – | – | – | 0.00658 | – |
| ACGCAGCUGGGUGAGGAUAUCGGUGGUAAAACAUGAGGAUCACCCAUGUCCGAAGCUCGGACUUCCGAGAAGGCGCCCAACUGCA [Ercelama] (puzzle: Same State 2) | – | – | – | 0.0129 | 0.0551 | 0.0709 |
| ACGCAGCUGGGUGAGGAUAUCGGUGGUACAACAUGAGGAUCACCCAUGUCCGAAGCUCGGACCUCCGAGAAGGCGCCCGGCUGCG [Soinraesar Omei Mod 2] (puzzle: Same State 2) | – | – | – | 0.0174 | 0.0248 | 0.0578 |
| ACUAGAAGCGGGCAAUAACACAUGAGGAUCACCCAUGUGACACAGGAUAUAACCAGAUCAGAAAGUUAGAAGGGUGAGCCCGCA [Usatbere] (Eterna round: R96, puzzle: Same State NG 3) | 0.0132 | 0.0199 | 0.0274 | – | – | – |
| AGAAAUCAACGCGCACAUGAGGAUCACCCAUGUGCUCAAGCACAGGAUAUCGGCACAAGACAGGCCGAGAAGGGUGGAGCACGA [Eternabot solution 3] (Eterna round: R96, puzzle: Same State NG 3) | 0.0147 | 0.0197 | 0.0241 | – | – | – |
| AGAGAACAUGAGGAUCACCCAUGUGAGAGGGAUGUAGGAUAUGUAAGGAAGAAAGAAGGAACAGAAGGACAAAGAG [JR_SS!_Sub066] (puzzle: Same State 1) | – | – | – | 0.0505 | 0.0785 | 0.0707 |
| AGAGCCGGCACUGAGGAUAUUCAUAAUAAAACAUGAGGAUCACCCAUGUAGGCCAGAAGGCCUUGGGAGAAGGCAGGUCGGCUCU [Mat - Same State 2 - Mod of UCT - D69] (puzzle: Same State 2) | – | – | – | 0.0177 | 0.168 | 0.22 |
